The text below walks through data of patent publication US20110243899A1 (NATIONAL UNIVERSITY CORPORATION CHIBA UNIVERSITY, published 2011).

Test [1] has as its target Myc-tagged Frz8CRD (Frz8CRD-Myc), cysteine-rich domain of Frizzled 8 (Mus musculus (Mouse)) (UniProt Q61091). Description: liquid-phase binding assay with immunoprecipitated Frz8CRD-Myc, Scatchard plot.
Test [2] deals with T1, Myc-tagged Frz8CRD (Frz8CRD-Myc), cysteine-rich domain of Frizzled 8 (UniProt Q61091 28-151).
T1 chain: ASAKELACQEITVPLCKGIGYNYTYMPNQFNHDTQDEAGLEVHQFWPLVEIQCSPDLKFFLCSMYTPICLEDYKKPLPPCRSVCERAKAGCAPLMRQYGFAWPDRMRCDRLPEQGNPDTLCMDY
Kind of test: radioligand saturation binding (Scatchard).

In test [3] the target is T2, Myc-tagged LRP6N (LRP6N-Myc), extracellular portion of LRP6 (UniProt O75581 20-1370).
T2 chain: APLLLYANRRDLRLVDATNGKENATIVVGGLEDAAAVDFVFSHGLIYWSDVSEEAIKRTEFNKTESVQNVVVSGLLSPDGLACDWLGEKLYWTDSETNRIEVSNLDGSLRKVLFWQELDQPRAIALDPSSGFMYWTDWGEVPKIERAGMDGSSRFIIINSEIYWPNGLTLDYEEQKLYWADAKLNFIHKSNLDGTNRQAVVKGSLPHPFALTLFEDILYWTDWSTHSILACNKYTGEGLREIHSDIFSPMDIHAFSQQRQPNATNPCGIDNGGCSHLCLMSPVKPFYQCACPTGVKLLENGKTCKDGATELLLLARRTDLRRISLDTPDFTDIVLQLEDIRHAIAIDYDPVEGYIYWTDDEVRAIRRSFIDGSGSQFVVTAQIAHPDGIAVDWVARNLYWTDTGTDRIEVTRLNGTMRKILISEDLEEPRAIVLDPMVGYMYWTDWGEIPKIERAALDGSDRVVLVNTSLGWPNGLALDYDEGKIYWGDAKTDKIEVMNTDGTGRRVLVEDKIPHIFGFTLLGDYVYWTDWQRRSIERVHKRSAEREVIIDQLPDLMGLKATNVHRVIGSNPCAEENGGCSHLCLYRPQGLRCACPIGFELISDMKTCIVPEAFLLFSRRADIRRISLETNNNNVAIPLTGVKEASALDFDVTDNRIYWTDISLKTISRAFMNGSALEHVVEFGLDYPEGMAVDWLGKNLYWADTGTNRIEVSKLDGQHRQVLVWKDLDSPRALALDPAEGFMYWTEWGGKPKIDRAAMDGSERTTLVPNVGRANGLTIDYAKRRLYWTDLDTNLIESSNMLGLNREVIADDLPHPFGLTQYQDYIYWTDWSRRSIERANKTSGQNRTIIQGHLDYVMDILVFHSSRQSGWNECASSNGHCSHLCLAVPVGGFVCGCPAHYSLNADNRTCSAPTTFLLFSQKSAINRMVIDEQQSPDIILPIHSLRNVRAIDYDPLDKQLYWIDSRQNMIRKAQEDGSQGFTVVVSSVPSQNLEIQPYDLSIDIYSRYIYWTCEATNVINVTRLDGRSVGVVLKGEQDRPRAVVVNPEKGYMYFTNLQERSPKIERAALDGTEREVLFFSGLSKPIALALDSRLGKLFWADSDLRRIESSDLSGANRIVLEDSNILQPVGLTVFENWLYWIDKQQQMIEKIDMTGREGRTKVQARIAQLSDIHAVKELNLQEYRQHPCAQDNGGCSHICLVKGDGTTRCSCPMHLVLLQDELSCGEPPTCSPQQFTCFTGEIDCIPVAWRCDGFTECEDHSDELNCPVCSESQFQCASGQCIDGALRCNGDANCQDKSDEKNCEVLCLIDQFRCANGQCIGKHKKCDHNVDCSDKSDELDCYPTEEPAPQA
Kind of test: radioligand saturation binding (Scatchard); Kd2, low-affinity site.

For test [4], the target named is T2, Myc-tagged LRP6N (LRP6N-Myc), …. Description: radioligand saturation binding (Scatchard); Kd1, high-affinity site.
In test [5] the target is T3, Myc-tagged LRP6N (LRP6N-Myc), extracellular portion of LRP6 (UniProt O75581 20-1370, limits assumed).
T3 construct: extracellular domain; Produced in conditioned medium of 293 cells; not shown: Myc tag
T3 sequence (looked up): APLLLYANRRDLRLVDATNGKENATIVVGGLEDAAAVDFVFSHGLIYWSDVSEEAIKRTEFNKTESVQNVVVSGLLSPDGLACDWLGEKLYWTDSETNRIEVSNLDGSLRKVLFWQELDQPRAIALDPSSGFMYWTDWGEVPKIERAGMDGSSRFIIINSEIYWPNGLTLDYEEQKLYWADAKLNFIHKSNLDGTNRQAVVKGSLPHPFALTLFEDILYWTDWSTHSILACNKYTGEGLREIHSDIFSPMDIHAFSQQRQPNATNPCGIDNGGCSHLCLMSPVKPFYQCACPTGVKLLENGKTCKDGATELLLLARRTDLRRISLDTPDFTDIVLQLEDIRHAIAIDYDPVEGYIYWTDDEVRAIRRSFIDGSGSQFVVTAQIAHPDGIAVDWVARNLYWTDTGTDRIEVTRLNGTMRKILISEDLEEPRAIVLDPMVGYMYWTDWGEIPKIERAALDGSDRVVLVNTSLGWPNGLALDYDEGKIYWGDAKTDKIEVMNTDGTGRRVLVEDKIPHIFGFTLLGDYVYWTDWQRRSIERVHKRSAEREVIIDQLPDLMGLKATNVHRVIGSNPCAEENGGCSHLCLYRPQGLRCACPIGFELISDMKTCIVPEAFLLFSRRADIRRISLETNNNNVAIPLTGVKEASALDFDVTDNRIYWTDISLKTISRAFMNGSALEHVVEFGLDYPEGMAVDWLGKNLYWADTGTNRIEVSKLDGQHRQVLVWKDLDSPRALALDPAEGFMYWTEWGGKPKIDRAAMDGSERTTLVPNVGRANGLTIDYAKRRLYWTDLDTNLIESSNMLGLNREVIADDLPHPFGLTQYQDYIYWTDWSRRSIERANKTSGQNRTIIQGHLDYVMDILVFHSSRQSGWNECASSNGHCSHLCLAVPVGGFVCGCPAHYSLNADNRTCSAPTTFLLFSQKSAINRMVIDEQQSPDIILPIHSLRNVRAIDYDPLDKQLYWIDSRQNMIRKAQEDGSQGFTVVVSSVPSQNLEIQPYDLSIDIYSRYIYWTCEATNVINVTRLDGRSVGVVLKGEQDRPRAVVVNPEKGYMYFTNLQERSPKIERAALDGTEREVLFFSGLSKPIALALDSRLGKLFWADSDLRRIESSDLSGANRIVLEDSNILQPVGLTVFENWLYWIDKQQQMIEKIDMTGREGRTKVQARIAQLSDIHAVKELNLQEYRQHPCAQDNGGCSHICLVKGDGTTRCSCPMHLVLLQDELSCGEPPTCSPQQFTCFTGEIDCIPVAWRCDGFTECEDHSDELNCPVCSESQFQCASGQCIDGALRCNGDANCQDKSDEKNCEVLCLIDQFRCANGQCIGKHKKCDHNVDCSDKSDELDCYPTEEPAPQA
Description: IP with anti-Myc antibody, immunoblot with anti-V5 antibody. The protocol: The interaction was assessed by allowing LRP6N-Myc to react with each V5-tagged IGFBP, and performing immunoprecipitation (IP) with an anti-Myc antibody and subsequent immunoblotting (IB) with an anti-V5 antibody (upper panel), and immunoprecipitation (IP) with an anti-V5 antibody and subsequent immunoblotting (IB) with an anti-V5 antibody (lower panel). In the figure, IGFBP-1, IGFBP-2, IGFBP-3, IGFBP-4, IGFBP-5, and IGFBP-6 are represented by BP1, BP2, BP3, BP4, BP5, and BP6, respectively.

For the molecule ^125I-labelled IGFBP-4, in test [1], the Kd – broadly, the constant that tells how readily two partners part at equilibrium – came to 25 nM.

B1: ^125I-labelled IGFBP-4 (other)
chain: DEAIHCPPCSEEKLARCRPPVGCEELVREPGCGCCATCALGLGMPCGVYTPRCGSGLRCYPPRGVEKPLHTLMHGQGVCMELAEIEAIQESLQPSDKDEGDHPNNSFSPCSAHDRRCLQKHFAKIRDRSTSGGKMKVNGAPREDARPVPQGSCQSELHRALERLAASQSRTHEDLYIIPIPNCDRNGNFHPKQCHPALDGQRGKCWCVDRKTGVKLPGGLEPKGELDCHQLADSFRE
In the case of B1, the figures for the Kd in test [2], in test [3] and in test [4] were 2.5 nM, 6.9 nM and 0.17 nM, respectively.

B2: IGFBP-3 (V5-tagged) (other, mouse, UniProt P47878 28-292, looked up)
chain: GAGAVGAGPVVRCEPCDARALSQCAPPPTAPACTELVREPGCGCCLTCALREGDACGVYTERCGTGLRCQPRPAEQYPLRALLNGRGFCANASAAGSLSTYLPSQPAPGNISESEEEHNAGSVESQVVPSTHRVTDSKFHPLHAKMDVIKKGHARDSQRYKVDYESQSTDTQNFSSESKRETEYGPCRREMEDTLNHLKFLNVLSPRGVHIPNCDKKGFYKKKQCRPSKGRKRGFCWCVDKYGQPLPGYDTKGKDDVHCLSVQSQ
notes: V5-tagged in the IP/western; not shown: V5 tag
B2: in test [5], the binding result was “no binding”.

B3: IGFBP-5 (V5-tagged) (other, mouse, UniProt Q07079 20-271, looked up)
chain: LGSFVHCEPCDEKALSMCPPSPLGCELVKEPGCGCCMTCALAEGQSCGVYTERCAQGLRCLPRQDEEKPLHALLHGRGVCLNEKSYGEQTKIERDSREHEEPTTSEMAEETYSPKVFRPKHTRISELKAEAVKKDRRKKLTQSKFVGGAENTAHPRVIPAPEMRQESEQGPCRRHMEASLQEFKASPRMVPRAVYLPNCDRKGFYKRKQCKPSRGRKRGICWCVDKYGMKLPGMEYVDGDFQCHAFDSSNVE
notes: as for B2
As to B3, the binding result in test [5] is reported as “no binding”.
